Assays:
Test in all cases: flow cytometry, transfected HEK293 cells, 10 μg/mL
[1] = biological target: T1, N末端FLAG−tag付加型ヒトROBO4細胞外領域ドメイン欠損体 hROBO4−132 (human, UniProt Q8WZ75 132-1007)
T1 construct: On HEK293 cells; also called pCI−FLAG−hROBO4−132; pCI−hROBO4−132
T1 sequence: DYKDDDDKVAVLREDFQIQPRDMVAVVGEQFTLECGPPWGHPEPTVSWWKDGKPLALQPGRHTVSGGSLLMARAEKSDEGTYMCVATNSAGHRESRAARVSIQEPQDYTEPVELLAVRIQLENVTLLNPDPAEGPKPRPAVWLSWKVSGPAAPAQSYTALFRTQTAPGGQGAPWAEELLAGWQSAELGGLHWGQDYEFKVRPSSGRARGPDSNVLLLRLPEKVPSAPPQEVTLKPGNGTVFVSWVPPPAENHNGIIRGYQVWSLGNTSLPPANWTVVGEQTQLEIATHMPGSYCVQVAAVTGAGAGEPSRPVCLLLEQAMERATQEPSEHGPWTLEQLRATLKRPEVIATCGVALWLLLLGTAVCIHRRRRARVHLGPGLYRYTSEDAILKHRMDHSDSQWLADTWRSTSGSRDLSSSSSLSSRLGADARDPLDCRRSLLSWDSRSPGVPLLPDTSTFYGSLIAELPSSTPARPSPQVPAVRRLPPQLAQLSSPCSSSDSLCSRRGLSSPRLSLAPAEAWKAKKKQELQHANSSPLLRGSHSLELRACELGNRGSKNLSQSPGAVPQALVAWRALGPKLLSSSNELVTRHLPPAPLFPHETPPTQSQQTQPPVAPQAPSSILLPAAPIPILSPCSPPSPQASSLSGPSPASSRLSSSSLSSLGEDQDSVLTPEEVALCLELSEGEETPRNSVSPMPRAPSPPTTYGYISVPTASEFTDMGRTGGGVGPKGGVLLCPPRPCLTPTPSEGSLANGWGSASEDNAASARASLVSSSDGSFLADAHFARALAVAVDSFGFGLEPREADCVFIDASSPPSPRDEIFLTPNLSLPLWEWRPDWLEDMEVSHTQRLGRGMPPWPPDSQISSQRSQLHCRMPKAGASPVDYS

[2] = biological target: T2, N末端FLAG−tag付加型カニクイザルROBO4 cynoROBO4−2 (cynomolgus monkey, UniProt Q8WZ75 28-1007 (human entry))
T2 construct: also called pCI−FLAG−cynoROBO4−2
T2 chain: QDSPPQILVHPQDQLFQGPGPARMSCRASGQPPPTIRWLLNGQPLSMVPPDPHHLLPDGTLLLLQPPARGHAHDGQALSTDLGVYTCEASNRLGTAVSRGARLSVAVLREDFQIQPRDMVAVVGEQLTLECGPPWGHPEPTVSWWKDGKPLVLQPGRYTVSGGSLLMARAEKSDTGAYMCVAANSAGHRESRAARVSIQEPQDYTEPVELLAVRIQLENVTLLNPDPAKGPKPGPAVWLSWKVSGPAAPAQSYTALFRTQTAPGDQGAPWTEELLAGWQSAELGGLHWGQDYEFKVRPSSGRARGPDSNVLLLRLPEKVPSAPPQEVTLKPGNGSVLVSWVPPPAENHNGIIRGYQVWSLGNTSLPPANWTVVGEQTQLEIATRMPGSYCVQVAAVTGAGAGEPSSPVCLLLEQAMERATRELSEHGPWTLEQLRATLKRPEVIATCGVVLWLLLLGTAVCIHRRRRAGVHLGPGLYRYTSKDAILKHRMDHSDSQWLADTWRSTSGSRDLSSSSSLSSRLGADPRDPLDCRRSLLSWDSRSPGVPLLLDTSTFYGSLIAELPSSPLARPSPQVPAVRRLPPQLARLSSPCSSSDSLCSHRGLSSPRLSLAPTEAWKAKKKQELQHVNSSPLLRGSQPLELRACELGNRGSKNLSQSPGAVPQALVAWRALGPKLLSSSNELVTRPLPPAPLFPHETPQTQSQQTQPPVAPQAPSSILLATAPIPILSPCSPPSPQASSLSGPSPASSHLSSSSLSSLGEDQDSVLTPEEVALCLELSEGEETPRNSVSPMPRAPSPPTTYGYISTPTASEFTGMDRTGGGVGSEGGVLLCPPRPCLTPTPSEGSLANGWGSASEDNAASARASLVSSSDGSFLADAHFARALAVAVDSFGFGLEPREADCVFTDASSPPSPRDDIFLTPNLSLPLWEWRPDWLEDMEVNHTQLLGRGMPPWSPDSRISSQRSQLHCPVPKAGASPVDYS

[3] = biological target: T3, N末端FLAG−tag付加型カニクイザルROBO4 cynoROBO4−1 (cynomolgus monkey, UniProt Q8WZ75 28-1007 (human entry))
T3 construct: also called pCI−FLAG−cynoROBO4−1
T3 chain: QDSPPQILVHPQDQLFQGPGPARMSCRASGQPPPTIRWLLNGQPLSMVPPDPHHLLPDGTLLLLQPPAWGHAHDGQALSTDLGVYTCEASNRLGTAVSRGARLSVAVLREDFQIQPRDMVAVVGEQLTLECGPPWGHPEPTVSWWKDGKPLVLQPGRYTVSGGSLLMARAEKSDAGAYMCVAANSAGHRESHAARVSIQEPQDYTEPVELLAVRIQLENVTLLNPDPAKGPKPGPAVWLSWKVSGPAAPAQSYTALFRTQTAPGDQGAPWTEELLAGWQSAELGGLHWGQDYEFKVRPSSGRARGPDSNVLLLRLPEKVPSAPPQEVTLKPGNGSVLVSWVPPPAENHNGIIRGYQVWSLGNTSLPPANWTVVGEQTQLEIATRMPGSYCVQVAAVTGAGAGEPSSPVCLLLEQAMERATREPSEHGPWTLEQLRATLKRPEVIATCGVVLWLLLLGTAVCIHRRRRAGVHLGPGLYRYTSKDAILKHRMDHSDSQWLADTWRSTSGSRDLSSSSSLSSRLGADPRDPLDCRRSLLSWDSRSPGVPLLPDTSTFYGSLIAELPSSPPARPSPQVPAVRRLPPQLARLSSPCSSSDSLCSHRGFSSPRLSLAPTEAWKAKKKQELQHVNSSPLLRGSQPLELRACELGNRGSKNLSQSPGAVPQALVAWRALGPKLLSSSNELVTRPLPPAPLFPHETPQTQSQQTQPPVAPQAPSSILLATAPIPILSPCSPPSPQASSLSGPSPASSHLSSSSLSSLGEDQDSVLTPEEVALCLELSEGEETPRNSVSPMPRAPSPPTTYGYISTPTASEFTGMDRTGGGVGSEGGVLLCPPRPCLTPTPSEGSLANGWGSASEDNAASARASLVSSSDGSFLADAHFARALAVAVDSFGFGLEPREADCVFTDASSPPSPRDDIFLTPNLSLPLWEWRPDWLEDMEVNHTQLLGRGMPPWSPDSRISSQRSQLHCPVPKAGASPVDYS

binding result [1]: binds
binding result [2]: binds
binding result [3]: binds
B1: 抗ROBO4マウスモノクローナル抗体 MAb1 (antibody, V domains shown)
VH: EVQLVESGGGLVKPGGSLKLSCAASGFTFSTYAMSWVRQTPEKRLEWVATISNGGTYTYYPDSVKGRFTISRDNAENTLYLQMSSLRSEDTAMYFCARLIYYDYLDYWGHGTTLTVSS
VL: DAVMTQTPLSLPVSLGDQASISCRSSQSLENSNGNTYLNWYFQKPGQSPQLLIYRVSNRFSGVLDRFSGSGSGTDFTLKISRVEAEDFGVYFCLQVTHVPWTFGGGTKLEIKR
notes: Mouse IgG1 (gamma 1) / kappa from a hybridoma; The constant regions are not in the listing; also called MAb1
